Data: the supplement of paper PMC9732359
± gives the uncertainty stated by the source.

Test: protein stability index of a GFP-peptide fusion (yeast GPS) (PSI 1-4); higher = more stable; sorted into four equal gates, so the index is relative within each strain
Summary of the method: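 Mid-log yeast cultures in leucine-free medium, carrying a pooled plasmid library, were sorted into four equal gates by their GFP/Cherry fluorescence ratio. Each plasmid expressed Cherry along with GFP fused upstream of a tiled 17-residue yeast protein peptide. Plasmids recovered from each gate were PCR-amplified and Illumina-sequenced, with reads assigned to strains by barcodes. The protein stability index was obtained by summing each gate's read frequency weighted by its gate number.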

Row | Sequence | protein stability index (doa10∆) | protein stability index (pdr5∆) | protein stability index (san1∆) | protein stability index (ubr1∆)
1 | TKWGLINYQVDSKLLPK [SWI3] | 2.8 ± 0.11 | 2.41 ± 0.12 | 1.92 ± 0.15 | 2.55 ± 0.077
2 | TKYERARILGTRALQIS [RPO26] | – | 1.36 ± 0.24 | – | 1.21 ± 0.13
3 | TLELSAQFRVPRYHSKN [SWP82] | 2.52 ± 0.067 | 2.72 ± 0.056 | 2.49 ± 0.065 | 2.74 ± 0.041
4 | TLGVVGKSEKLSLLLVE [SKI6] | 2.8 ± 0.051 | 3.04 ± 0.048 | 3.11 ± 0.035 | 2.96 ± 0.049
5 | TLHLVLRLRGGGKKRKK [RPS31] | 2.34 ± 0.26 | 2.32 ± 0.084 | 2.83 ± 0.3 | 2.86 ± 0.14
6 | TLSLPDSQDYILSINAI [SMC1] | 2.85 ± 0.041 | 2.95 ± 0.05 | 2.9 ± 0.04 | 2.87 ± 0.044
7 | TLTASPDGTLIASAGKD [ASC1] | 2.86 ± 0.093 | 3.19 ± 0.1 | 3.12 ± 0.065 | 3.14 ± 0.063
8 | TLVHTRVKIANTSAATV [SSN2] | 2.35 ± 0.056 | 2.31 ± 0.046 | 2.32 ± 0.044 | 2.57 ± 0.035
9 | TLVNKSTGLKSASDALK [RPS1A] | 2.94 ± 0.11 | 3.1 ± 0.11 | 3.42 ± 0.092 | 3.23 ± 0.074
10 | TLYIGNTANGRPPVKAI [ECM29] | 1.84 ± 0.17 | 2 ± 0.094 | 1.99 ± 0.11 | 1.47 ± 0.11
11 | TMADAVRELGILCIFEG [SEC65] | 2.52 ± 0.06 | 2.05 ± 0.071 | 2.62 ± 0.063 | 1.45 ± 0.062
12 | TMRRQKLTILQEGIEAI [RET1] | 2.39 ± 0.076 | 2.67 ± 0.051 | 2.8 ± 0.078 | 2.96 ± 0.062
13 | TMTISHLLLGFQVSNVI [YJL039C/NUP192] | 1.41 ± 0.038 | 1.72 ± 0.039 | 1.75 ± 0.06 | 1.77 ± 0.034
14 | TNDDSIKNLTVQLSPSN [RGR1] | 2.8 ± 0.074 | 2.79 ± 0.059 | 2.56 ± 0.056 | 2.58 ± 0.05
15 | TNEFVGSPSLTSPQYIP [NUT1] | 2.85 ± 0.057 | 3.04 ± 0.043 | 3.06 ± 0.035 | 2.93 ± 0.032
16 | TNGKPDMAILERYYELA [ARP7] | 3.23 ± 0.088 | 3.1 ± 0.097 | 3.01 ± 0.075 | 3.19 ± 0.06
17 | TNLISKISLLRPSFQNN [SWP82] | 2.52 ± 0.05 | 2.69 ± 0.05 | 2.53 ± 0.071 | 2.72 ± 0.064
18 | TNNEQLQQELATTQDQV [NUT2] | 3.06 ± 0.048 | 3.25 ± 0.062 | 3.11 ± 0.039 | 3.19 ± 0.038
19 | TNSSILLGKILPREEHD [RRP6] | 1.55 ± 0.064 | 2.18 ± 0.16 | 1.61 ± 0.25 | 1.58 ± 0.11
20 | TNSVRLFEVNPSQTLFS [SRP21] | 2.65 ± 0.09 | 2.51 ± 0.078 | 2.2 ± 0.073 | 2.56 ± 0.047

Row | Sequence | protein stability index (doa10∆) | protein stability index (pdr5∆) | protein stability index (san1∆) | protein stability index (ubr1∆)
21 | TNVLNFIKLQKIDIIEL [FAS1] | 2.35 ± 0.042 | 1.94 ± 0.043 | 1.91 ± 0.075 | 2.05 ± 0.044
22 | TNVPKAKKRKTLILIQN [SIR3] | 1.67 ± 0.18 | 1.63 ± 0.12 | 1.33 ± 0.22 | 1.4 ± 0.1
23 | TNVRLYSLLLASKGIDR [ECM29] | 2.13 ± 0.048 | 2.79 ± 0.087 | 3.48 ± 0.088 | 3.33 ± 0.069
24 | TNYYLTTARNDLGVVFA [CSL4] | 2.04 ± 0.066 | 2.39 ± 0.078 | 2.51 ± 0.075 | 2.82 ± 0.072
25 | TPLFPIDRNSTILYLNV [IRR1] | 2.71 ± 0.083 | 1.87 ± 0.072 | 2.93 ± 0.092 | 2.69 ± 0.098
26 | TPQQLQMIQQRHQQLLR [SNF5] | 1.9 ± 0.044 | 2.32 ± 0.045 | 2.04 ± 0.052 | 1.74 ± 0.045
27 | TPSTSSNGEFIPHIFYS [CSE2] | 2.36 ± 0.054 | 2.44 ± 0.043 | 2.62 ± 0.044 | 2.82 ± 0.048
28 | TPYNIDRLTQLVRNGPN [RPO21] | 3.05 ± 0.12 | 3.19 ± 0.13 | 3.17 ± 0.076 | 3.18 ± 0.2
29 | TQEEVELPLEDFKAKYC [RPB5] | 3.33 ± 0.11 | 3.25 ± 0.11 | 3.58 ± 0.11 | 3.28 ± 0.071
30 | TQEIRPVNTGVLHVSAK [RRP40] | 2.72 ± 0.12 | 2.91 ± 0.1 | 2.74 ± 0.081 | 3.01 ± 0.11
31 | TQQPGTNSHYNNTNTDN [SNF2] | 3.17 ± 0.046 | 3.26 ± 0.04 | 3.21 ± 0.036 | 3.204 ± 0.028
32 | TQTYMQMIELNRQICLV [GRR1] | 2.35 ± 0.13 | 1.44 ± 0.073 | 1.35 ± 0.19 | 1.25 ± 0.047
33 | TRAMEYLKFRELPAGQN [RPB2] | 2.4 ± 0.072 | 2.75 ± 0.084 | 3.13 ± 0.071 | 3.02 ± 0.13
34 | TRELAEEGYSGVEVRVT [RPS3] | 2.4 ± 0.059 | 3 ± 0.073 | 2.67 ± 0.053 | 2.86 ± 0.04
35 | TRFEVELEFIQSLANIQ [SOH1] | 2.15 ± 0.082 | 2.29 ± 0.061 | 2.14 ± 0.1 | 2.5 ± 0.058
36 | TRIAGVVYHPSNNELVR [RPS8A] | 2.666 ± 0.019 | 2.47 ± 0.018 | 2.56 ± 0.02 | 2.652 ± 0.013
37 | TRIQYVDFACCTNLTNR [GRR1] | 2.82 ± 0.057 | 2.6 ± 0.069 | 2.58 ± 0.1 | 2.36 ± 0.049
38 | TRKAVRPQKLRASLVPG [RPL6B] | 2.26 ± 0.11 | 1.67 ± 0.11 | 2.9 ± 0.14 | 1.83 ± 0.046
39 | TRNEQTTIQTEKVRPTP [MCD1] | 2.82 ± 0.04 | 2.99 ± 0.046 | 2.88 ± 0.036 | 3 ± 0.031
40 | TRNITDYSINSRYEPKV [PRE7] | 2.62 ± 0.053 | 2.7 ± 0.049 | 2.99 ± 0.046 | 2.88 ± 0.047
